From PMC11347734, “Ultrasensitive Quantification of MUC16 Antigen/Amine-Terminated Aptamer Interaction by Surface Plasmon Resonance: Kinetic and Thermodynamic Studies”

Experiments:
Conditions in all cases: protein: commercial
[1] = target: T1, MUC16 antigen (CA125) (UniProt Q8WXI7 1-14451); assay: SPR; 25 C, pH 7.2; kon 2.55e4 M-1 s-1, koff 1.01e-3 s-1; SPR, pH 7.2, 25 C (also 37 and 42 C); 1X PBS with 1 mM MgCl2 given as flow buffer for aptamer immobilization; surface blocked with 0.1% BSA
[2] = target: T1, MUC16 antigen (CA125); assay: SPR; 315 K (42 C), pH 7.2; SPR, pH 7.2, 25 C (also 37 and 42 C); 1X PBS with 1 mM MgCl2 given as flow buffer for aptamer immobilization; surface blocked with 0.1% BSA
[3] = target: T1, MUC16 antigen (CA125); assay: SPR; 310 K (37 C), pH 7.2; SPR, pH 7.2, 25 C (also 37 and 42 C); 1X PBS with 1 mM MgCl2 given as flow buffer for aptamer immobilization; surface blocked with 0.1% BSA

Binder: CTCACTATAGGGAGACAAGAATAAACGCTCAA (ssDNA, 3'-C6 amine) [anti-MUC16 aptamer]
- Kd [1]: 39 nM
- Kd [2]: 1340 nM
- Kd [3]: 101 nM
